Series [1] deals with T1, bovine Apolipoprotein A-I (Bos taurus, UniProt P15497 25-265).
T1 construct: also called bovine apolipoprotein A1; Apo AI[Bos taurus]
T1 sequence: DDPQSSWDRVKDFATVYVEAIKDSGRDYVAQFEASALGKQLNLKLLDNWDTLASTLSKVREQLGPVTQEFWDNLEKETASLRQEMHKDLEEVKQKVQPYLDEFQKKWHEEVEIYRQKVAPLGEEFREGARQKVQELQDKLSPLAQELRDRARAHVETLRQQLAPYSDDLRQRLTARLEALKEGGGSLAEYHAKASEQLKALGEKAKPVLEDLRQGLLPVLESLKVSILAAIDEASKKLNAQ
As to the kind of experiment: co-purification from cell culture supernatant on nickel affinity resin via the His tag of NS1.

Series [2] deals with the molecule itself. The experiment in a line: self-association; analytical gel filtration (Superdex 200). For orientation: Size exclusion chromatography separates by hydrodynamic size, large species first.

B1: sNS1 (recombinant Zika virus NS1 purified from HEK293T culture supernatant) (other)
chain: GPMDVGCSVDFSKKETRCGTGVFVYNDVEAWRDRYKYHPDSPRRLAAAVKQAWEEGICGISSVSRMENIMWKSVEGELNAILEENGVQLTVVVGSVKNPMWRGPQRLPVPVNELPHGWKAWGKSYFVRAAKTNNSFVVDGDTLKECPLKHRAWNSFLVEDHGFGVFHTSVWLKVREDYSLECDPAVIGTAVKGKEAAHSDLGYWIESEKNDTWRLKRAHLIEMKTCEWPKSHTLWTDGVEESDLIIPKSLAGPLSHHNTREGYRTQVKGPWHSEELEIRFEECPGTKVHVEETCGTRGPSLRSTTASGRVIEEWCCRECTMPPLSFRAKDGCWYGMEIRPRKEPESNLVRSMVTALEHHHHHHHH
notes: Secreted form purified in the presence of 0.1% Triton X-100; Gel filtration: mainly hexamer (227 kDa); also called NS1[ZIKV]; soluble NS1 purified from cell culture supernatant
Turning to B1, the binding result in series [1] and in series [2] was “binds” throughout.

B2: mNS1 (recombinant Zika virus NS1 purified from HEK293T cell lysate) (other)
chain: GPMDVGCSVDFSKKETRCGTGVFVYNDVEAWRDRYKYHPDSPRRLAAAVKQAWEEGICGISSVSRMENIMWKSVEGELNAILEENGVQLTVVVGSVKNPMWRGPQRLPVPVNELPHGWKAWGKSYFVRAAKTNNSFVVDGDTLKECPLKHRAWNSFLVEDHGFGVFHTSVWLKVREDYSLECDPAVIGTAVKGKEAAHSDLGYWIESEKNDTWRLKRAHLIEMKTCEWPKSHTLWTDGVEESDLIIPKSLAGPLSHHNTREGYRTQVKGPWHSEELEIRFEECPGTKVHVEETCGTRGPSLRSTTASGRVIEEWCCRECTMPPLSFRAKDGCWYGMEIRPRKEPESNLVRSMVTALEHHHHHHHH
notes: Expressed in HEK293T from pTriEx-1; Gel filtration: mainly hexamer (212 kDa) with an extra monomer peak (44 kDa); SDS gives a dimer, heat gives a monomer; also called NS1[ZIKV]; membranous NS1 purified from cells
Consider B2, for which the binding result in series [2] is “binds”.

Source of the values: US20210033609A1 (EUROIMMUN MEDIZINISCHE LABORDIAGNOSTIKA, published 2021).
